B1: CSPG4-specific mouse monoclonal antibody 7H5A2 (antibody, IgG1, V domains shown)
VH: QVQLQQSGAELVRPGSSVKISCKASGFAFSNYWMNWVKQRPGQGLEWIGQIFPGDGDTNYNGKFKGKATLTADKSSSTAYMQLISLTSEDSAVYFCVRESDWGRGTTLTVSS
VL: DIQMTQTTSSLSASLGDRVTISCSASQGINNYLNWYQQTPDGTVKLLIFYTSSLQSGVPSRFSGSGSGTDYSLTISNLEPEDIATYYCQQYSKLPFTFGSGTKLEIKR
notes: also called anti-CSPG4 antibody 7H5A2
B2: anti-CSPG4 antibody 8G5A6 (antibody, V domains shown)
VH: EVQLQQSGPDLVKPGASVKISCKASGYSFTVYYMNWVKQSHGKSLEWIGRIDPNDGGASYNQKFKGKAILTVDKSSGTAYMELRSLTSEDSAVYYCARRDYYGSKDYWGQGTTLTVSS
VL: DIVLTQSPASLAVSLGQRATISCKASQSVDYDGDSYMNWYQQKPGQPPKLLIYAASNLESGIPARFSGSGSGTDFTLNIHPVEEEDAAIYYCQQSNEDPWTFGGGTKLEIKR

Key:
[1] = biological target: T1, chondroitin sulfate proteoglycan 4 (CSPG4) (human, UniProt Q6UVK1 30-2322); assay: western blot on mock and CSPG4-CRISPR cell lysates; immunofluorescence of cells
T1 construct: whole, on cells; Endogenous full-length CSPG4 of human ovarian cancer cell lines, on the cell surface or in cell lysates for western blot; also called CSPG4 core protein
T1 sequence (Q6UVK1 30-2322): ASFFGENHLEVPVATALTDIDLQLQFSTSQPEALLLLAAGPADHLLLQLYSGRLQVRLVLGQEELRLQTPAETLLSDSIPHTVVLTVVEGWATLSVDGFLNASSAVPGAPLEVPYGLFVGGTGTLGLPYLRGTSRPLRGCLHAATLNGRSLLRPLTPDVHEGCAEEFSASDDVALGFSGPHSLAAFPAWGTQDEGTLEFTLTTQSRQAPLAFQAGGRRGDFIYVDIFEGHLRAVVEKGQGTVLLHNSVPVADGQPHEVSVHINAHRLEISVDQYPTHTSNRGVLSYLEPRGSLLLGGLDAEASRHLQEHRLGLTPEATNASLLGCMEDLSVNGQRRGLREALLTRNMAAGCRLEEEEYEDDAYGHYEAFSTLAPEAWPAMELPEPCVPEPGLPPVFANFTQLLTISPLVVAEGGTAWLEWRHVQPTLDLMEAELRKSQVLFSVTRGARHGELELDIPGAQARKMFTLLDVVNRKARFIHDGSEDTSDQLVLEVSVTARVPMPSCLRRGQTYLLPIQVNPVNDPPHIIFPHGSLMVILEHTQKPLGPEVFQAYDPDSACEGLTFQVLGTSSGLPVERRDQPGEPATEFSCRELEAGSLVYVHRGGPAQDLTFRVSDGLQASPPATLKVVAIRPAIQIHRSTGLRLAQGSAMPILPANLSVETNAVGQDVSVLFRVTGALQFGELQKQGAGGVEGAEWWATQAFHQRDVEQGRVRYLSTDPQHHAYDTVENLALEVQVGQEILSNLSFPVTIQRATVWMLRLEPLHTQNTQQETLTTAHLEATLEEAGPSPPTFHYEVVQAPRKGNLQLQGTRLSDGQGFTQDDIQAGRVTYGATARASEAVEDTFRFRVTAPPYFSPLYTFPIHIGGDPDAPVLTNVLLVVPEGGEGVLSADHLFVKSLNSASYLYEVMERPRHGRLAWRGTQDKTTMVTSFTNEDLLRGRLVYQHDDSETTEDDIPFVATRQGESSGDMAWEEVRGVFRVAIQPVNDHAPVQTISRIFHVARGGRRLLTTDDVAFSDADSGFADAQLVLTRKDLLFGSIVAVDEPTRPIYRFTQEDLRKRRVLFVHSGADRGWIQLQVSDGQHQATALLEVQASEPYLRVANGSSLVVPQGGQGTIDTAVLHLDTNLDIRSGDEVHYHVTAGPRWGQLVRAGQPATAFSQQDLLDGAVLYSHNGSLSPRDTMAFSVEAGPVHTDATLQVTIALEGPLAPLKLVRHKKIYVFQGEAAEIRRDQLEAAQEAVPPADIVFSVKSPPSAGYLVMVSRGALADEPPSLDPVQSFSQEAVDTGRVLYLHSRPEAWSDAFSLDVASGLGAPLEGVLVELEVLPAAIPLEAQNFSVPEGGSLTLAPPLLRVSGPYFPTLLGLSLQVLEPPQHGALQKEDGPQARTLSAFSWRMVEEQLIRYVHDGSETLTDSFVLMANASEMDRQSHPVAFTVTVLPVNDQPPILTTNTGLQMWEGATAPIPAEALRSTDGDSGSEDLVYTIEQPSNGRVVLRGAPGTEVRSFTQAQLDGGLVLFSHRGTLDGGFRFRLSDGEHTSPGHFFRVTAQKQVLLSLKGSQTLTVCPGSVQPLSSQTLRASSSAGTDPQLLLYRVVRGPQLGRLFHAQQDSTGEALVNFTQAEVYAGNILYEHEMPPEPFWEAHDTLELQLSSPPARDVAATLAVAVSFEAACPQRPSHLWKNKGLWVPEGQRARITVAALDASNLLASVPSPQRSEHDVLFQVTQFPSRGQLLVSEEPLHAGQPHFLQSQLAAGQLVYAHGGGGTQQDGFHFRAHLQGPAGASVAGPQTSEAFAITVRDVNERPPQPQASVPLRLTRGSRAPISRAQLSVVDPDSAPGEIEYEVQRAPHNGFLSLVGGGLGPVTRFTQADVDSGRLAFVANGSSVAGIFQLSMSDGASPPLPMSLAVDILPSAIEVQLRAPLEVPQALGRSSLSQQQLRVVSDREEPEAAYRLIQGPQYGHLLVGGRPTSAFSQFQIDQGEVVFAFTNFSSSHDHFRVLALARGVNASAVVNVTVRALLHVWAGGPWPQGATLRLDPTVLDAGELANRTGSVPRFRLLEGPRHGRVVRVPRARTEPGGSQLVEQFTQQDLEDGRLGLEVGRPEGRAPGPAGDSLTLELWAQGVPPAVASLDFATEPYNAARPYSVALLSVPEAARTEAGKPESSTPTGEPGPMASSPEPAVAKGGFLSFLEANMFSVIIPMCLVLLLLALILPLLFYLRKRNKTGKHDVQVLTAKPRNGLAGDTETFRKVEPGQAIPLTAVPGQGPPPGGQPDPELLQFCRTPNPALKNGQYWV
Description: FIGS. 1A-1D. Antibody 7H5A2 targets CSPG4. FIG. 1A) Amino acid sequence of recombinant protein target used to generate antibody 7H5A2 (SEQ ID NO:34). Black text denotes CSPG4 region (SEQ ID NO:33), the lighter gray text corresponds to human FC sequence for protein purification. […] Cells are harvested in lysis buffer and 40 μg protein was loaded in each well from the indicated mock and CSPG4-CRISPR cell lines. Alpha-tubulin is included as a loading control. FIG. 1D) Immunofluorescence staining of HEY parent cells with antibody 7H5A2. Red bar=10 μm. Magnification 600×.
Generation of novel CSPG4 antibody: CSPG4-specific mouse monoclonal antibody 7H5A2 was generated by Promab Biotechnologies Inc (Richmond, CA) by injection of a recombinant CSPG4 protein immunogen corresponding to aa 1538-2221 of the CSPG4 core protein extracellular domain, expressed and purified from a eukaryotic expression system (see FIG. 1A). The specificity of the antibody was determined by screening against CSPG4 wild type and knockout cell lysates via western blot and cell staining via immunofluorescence (see FIGS. 1B and 1C). 7H5A2 is isotype IgG1.

[2] = biological target: T1, chondroitin sulfate proteoglycan 4 …; assay: identified by the methods of Example 6 (hybridoma raised against the CSPG4 fragment)

Row | Binder | binding result [1] | binding result [2]
1 | B1 | binds | –
2 | B2 | – | binds
